± gives the standard error. This sample holds only a part of the variants without activity.
B1: glmS ribozyme (parent)
chain: AUAAAAGCGCCAGAACUACAGAAAUGUAGUUGACGAGGAGGAGGUUUAUCGAAUUUUCGGCGGAUGCCUCCAAA

What was measured:
Settings in all cases: with glucosamine-6-phosphate
[1] = variants of: B1; assay: self-cleavage kobs at 160 uM GlcN6P; higher = faster cleavage; RNA array
Outline: (§1)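 Glucosamine-6-phosphate (40 μM to 10 mM) in HEPES/KCl/Mg(OAc)2 buffer was flowed over sequenced MiSeq chips, and tiles were imaged over ~14 h. Barcoded ribozyme variants there had been transcribed in situ by E. coli RNA polymerase and were tracked through a hybridised Cy3 probe at 37 °C. One- or two-exponential decay fits to per-tile medians, normalised to baseline and to non-cleaving reference variants, gave kobs. kcat and KM came from weighted Michaelis–Menten fits across concentrations.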

[2] = variants of: B1; assay: self-cleavage kobs at 640 uM GlcN6P; higher = faster cleavage; RNA array
Outline: as §1

[3] = variants of: B1; assay: self-cleavage kobs at 2500 uM GlcN6P; higher = faster cleavage; RNA array
Outline: as §1

[4] = variants of: B1; assay: self-cleavage kobs at 10000 uM GlcN6P; higher = faster cleavage; RNA array
Outline: as §1

Variant	self-cleavage kobs at 160 uM GlcN6P [1]	self-cleavage kobs at 640 uM GlcN6P [2]	self-cleavage kobs at 2500 uM GlcN6P [3]	self-cleavage kobs at 10000 uM GlcN6P [4]
A12C A64C C68A C71A	< 1e-05 s⁻¹	< 1e-05 s⁻¹	< 1e-05 s⁻¹	
C16U G37U C68G U69G	4.65e-05 ± 2.2e-05 s⁻¹	0.000144 ± 7.1e-05 s⁻¹	4.23e-05 ± 1.8e-05 s⁻¹	
G40U U49C U65G	< 1e-05 s⁻¹		< 1e-05 s⁻¹	
C10A A33G A36U G37C C61G	< 1e-05 s⁻¹	< 1e-05 s⁻¹		
C10G G13A U31A C50A G59U	< 1e-05 s⁻¹			
A6G C10U U57C	< 1e-05 s⁻¹			
G9C U49C	< 1e-05 s⁻¹	< 1e-05 s⁻¹	< 1e-05 s⁻¹	< 1e-05 s⁻¹
C10G A14U A42U G60C C67G	< 1e-05 s⁻¹			
A39G G63U	< 1e-05 s⁻¹	< 1e-05 s⁻¹	< 1e-05 s⁻¹	< 1e-05 s⁻¹
A15G G51C	< 1e-05 s⁻¹	< 1e-05 s⁻¹	< 1e-05 s⁻¹	< 1e-05 s⁻¹
G35C G37C U46C G63U	< 1e-05 s⁻¹	< 1e-05 s⁻¹	< 1e-05 s⁻¹	
C16A G35A G43A	< 1e-05 s⁻¹	< 1e-05 s⁻¹	< 1e-05 s⁻¹	
A15C U30G U31G	0.00201 ± 0.00083 s⁻¹	0.0146 ± 0.0069 s⁻¹	0.00946 ± 0.0035 s⁻¹	
G38A G40U	< 1e-05 s⁻¹	< 1e-05 s⁻¹	< 1e-05 s⁻¹	< 1e-05 s⁻¹
C8G C34G A52G	< 1e-05 s⁻¹	< 1e-05 s⁻¹		
C10U C11G A14G G43C A53C	< 1e-05 s⁻¹	< 1e-05 s⁻¹	< 1e-05 s⁻¹	
G32C G51C C68U	< 1e-05 s⁻¹		< 1e-05 s⁻¹	
A14G G32A G38U	< 1e-05 s⁻¹		< 1e-05 s⁻¹	< 1e-05 s⁻¹
A42U U45C A52G G59U	< 1e-05 s⁻¹			
G7U A52C	< 1e-05 s⁻¹	< 1e-05 s⁻¹		< 1e-05 s⁻¹
C34A U57G	< 1e-05 s⁻¹			< 1e-05 s⁻¹
G7U C8U A12G G51C C61U	< 1e-05 s⁻¹	< 1e-05 s⁻¹		
A14G G29A A36U U47C C67U	< 1e-05 s⁻¹	< 1e-05 s⁻¹		
G7C U31G	< 1e-05 s⁻¹		< 1e-05 s⁻¹	< 1e-05 s⁻¹

Variant	self-cleavage kobs at 160 uM GlcN6P [1]	self-cleavage kobs at 640 uM GlcN6P [2]	self-cleavage kobs at 2500 uM GlcN6P [3]	self-cleavage kobs at 10000 uM GlcN6P [4]
A6U C10G A36C	< 1e-05 s⁻¹		< 1e-05 s⁻¹	
A12G U47A C70U	5.89e-05 ± 2.2e-05 s⁻¹	0.000192 ± 3e-05 s⁻¹	0.000394 ± 9.5e-05 s⁻¹	
C34A C58A	< 1e-05 s⁻¹	< 1e-05 s⁻¹	< 1e-05 s⁻¹	< 1e-05 s⁻¹
U31C G43U A48U U55A	< 1e-05 s⁻¹	< 1e-05 s⁻¹	< 1e-05 s⁻¹	
C8A G13U	< 1e-05 s⁻¹	< 1e-05 s⁻¹	< 1e-05 s⁻¹	< 1e-05 s⁻¹
A42G A48G U54A	< 1e-05 s⁻¹			
A14U U45A U46C	0.000306 ± 0.0001 s⁻¹	0.00108 ± 0.00027 s⁻¹	0.00191 ± 0.00053 s⁻¹	
G29A U47G A53G	6.62e-05 ± 2e-05 s⁻¹	0.000173 ± 3.2e-05 s⁻¹	0.000477 ± 0.00013 s⁻¹	
A36C G41C C50U A64U C68A	< 1e-05 s⁻¹	< 1e-05 s⁻¹	< 1e-05 s⁻¹	< 1e-05 s⁻¹
C8U G60U C68U	< 1e-05 s⁻¹	< 1e-05 s⁻¹	< 1e-05 s⁻¹	< 1e-05 s⁻¹
G29U U65A C68G	5.02e-05 ± 1.1e-05 s⁻¹	6.79e-05 ± 1.4e-05 s⁻¹	3.55e-05 ± 1.3e-05 s⁻¹	
A36C A42G	< 1e-05 s⁻¹		< 1e-05 s⁻¹	< 1e-05 s⁻¹
G13U A36U G43A G51A C67G C70U	< 1e-05 s⁻¹		< 1e-05 s⁻¹	
G9U A48U C67G	< 1e-05 s⁻¹	< 1e-05 s⁻¹	< 1e-05 s⁻¹	
A39U C61U G62U	< 1e-05 s⁻¹	< 1e-05 s⁻¹	< 1e-05 s⁻¹	
G51U U55G C58G C61G	3.64e-05 ± 1.6e-05 s⁻¹			
U54A G66A	0.00093 ± 0.00023 s⁻¹	0.00513 ± 0.00085 s⁻¹	0.00986 ± 0.0017 s⁻¹	
U49C U57C G60A G63A	< 1e-05 s⁻¹	< 1e-05 s⁻¹	< 1e-05 s⁻¹	
G7C G13U A42G	< 1e-05 s⁻¹			< 1e-05 s⁻¹
A52C A53G G62C	< 1e-05 s⁻¹			< 1e-05 s⁻¹
G38U U65G C70U	< 1e-05 s⁻¹	< 1e-05 s⁻¹		
A33U G35C U57C U65C	< 1e-05 s⁻¹	< 1e-05 s⁻¹	< 1e-05 s⁻¹	
U31A A33G	< 1e-05 s⁻¹	< 1e-05 s⁻¹		< 1e-05 s⁻¹
C11G A42C	< 1e-05 s⁻¹	< 1e-05 s⁻¹	< 1e-05 s⁻¹	

Variant	self-cleavage kobs at 160 uM GlcN6P [1]	self-cleavage kobs at 640 uM GlcN6P [2]	self-cleavage kobs at 2500 uM GlcN6P [3]	self-cleavage kobs at 10000 uM GlcN6P [4]
C8G G44A	< 1e-05 s⁻¹	< 1e-05 s⁻¹	< 1e-05 s⁻¹	< 1e-05 s⁻¹
A6U C10G C68U	< 1e-05 s⁻¹			
G7U C10A G29C U57C	< 1e-05 s⁻¹	< 1e-05 s⁻¹	< 1e-05 s⁻¹	
G29A A39C C61G	< 1e-05 s⁻¹	< 1e-05 s⁻¹		< 1e-05 s⁻¹
A1U U2A G63A	< 1e-05 s⁻¹			
G29U G37C A39U	< 1e-05 s⁻¹	< 1e-05 s⁻¹		
G7U G41U A53G	< 1e-05 s⁻¹		< 1e-05 s⁻¹	
G32C A36U C50A C70G	0.0002 ± 3.9e-05 s⁻¹	0.000332 ± 8.2e-05 s⁻¹	0.000299 ± 0.0001 s⁻¹	
A6G G7C C10U G35U G40U G60A C70G	< 1e-05 s⁻¹	< 1e-05 s⁻¹	< 1e-05 s⁻¹	
G32U G41A U47G C61A G62U	< 1e-05 s⁻¹	< 1e-05 s⁻¹	< 1e-05 s⁻¹	
A14G A15G G35U	< 1e-05 s⁻¹	< 1e-05 s⁻¹	< 1e-05 s⁻¹	
U45C A48U U69C	< 1e-05 s⁻¹	< 1e-05 s⁻¹		
A33C G40C A52G G63A	< 1e-05 s⁻¹	< 1e-05 s⁻¹	< 1e-05 s⁻¹	
G43C A48G C71G	< 1e-05 s⁻¹	< 1e-05 s⁻¹	< 1e-05 s⁻¹	
A6G C16G G40A C50U C70G	< 1e-05 s⁻¹	< 1e-05 s⁻¹	< 1e-05 s⁻¹	< 1e-05 s⁻¹
G40A C67G	< 1e-05 s⁻¹	< 1e-05 s⁻¹		
G40C A42G A53C	5.62e-05 ± 1.9e-05 s⁻¹	0.00018 ± 6.6e-05 s⁻¹	0.000564 ± 0.00013 s⁻¹	
G35C U49G	< 1e-05 s⁻¹	< 1e-05 s⁻¹	< 1e-05 s⁻¹	
G7A G37A	< 1e-05 s⁻¹	< 1e-05 s⁻¹		< 1e-05 s⁻¹
A48C G62U	< 1e-05 s⁻¹	< 1e-05 s⁻¹	< 1e-05 s⁻¹	
U31C G32C A33U C34A U49A	< 1e-05 s⁻¹		< 1e-05 s⁻¹	< 1e-05 s⁻¹
U47G C50A A64G U69G	0.000158 ± 4.6e-05 s⁻¹	0.000155 ± 3.9e-05 s⁻¹	0.000142 ± 3.1e-05 s⁻¹	3.49e-05 ± 1.6e-05 s⁻¹
A12C G29C A52C A64C	< 1e-05 s⁻¹	< 1e-05 s⁻¹		
C8G C61A C68U	< 1e-05 s⁻¹			

Variant	self-cleavage kobs at 160 uM GlcN6P [1]	self-cleavage kobs at 640 uM GlcN6P [2]	self-cleavage kobs at 2500 uM GlcN6P [3]	self-cleavage kobs at 10000 uM GlcN6P [4]
G29A U30G G35A G38U U46A C71G	< 1e-05 s⁻¹			
G9A U46C G63C	< 1e-05 s⁻¹	< 1e-05 s⁻¹		
G13A C34G G62U	< 1e-05 s⁻¹	< 1e-05 s⁻¹		
C50G A64C	7.93e-05 ± 2.1e-05 s⁻¹		6.53e-05 ± 1.7e-05 s⁻¹	2.52e-05 ± 1.2e-05 s⁻¹
C34A U45G G66U U69G	< 1e-05 s⁻¹	< 1e-05 s⁻¹	< 1e-05 s⁻¹	
G43U U69C C70G	< 1e-05 s⁻¹	< 1e-05 s⁻¹		
A14G U31C U56A	0.0016 ± 0.00031 s⁻¹	0.00939 ± 0.0013 s⁻¹	0.0277 ± 0.0066 s⁻¹	
A15U G38C C71A	< 1e-05 s⁻¹		< 1e-05 s⁻¹	
A15G A33C C58G	< 1e-05 s⁻¹	< 1e-05 s⁻¹		
C8U A52G	< 1e-05 s⁻¹	< 1e-05 s⁻¹	< 1e-05 s⁻¹	< 1e-05 s⁻¹
G29A C50G	0.000108 ± 3.1e-05 s⁻¹	3.64e-05 ± 1.5e-05 s⁻¹	0.00038 ± 0.00019 s⁻¹	
G7A G43C C71U	< 1e-05 s⁻¹	< 1e-05 s⁻¹		
A39G U65C	5.26e-05 ± 2.5e-05 s⁻¹	0.000513 ± 0.00015 s⁻¹	0.00163 ± 0.0005 s⁻¹	
G13U G32U C34A G35U	< 1e-05 s⁻¹	< 1e-05 s⁻¹	< 1e-05 s⁻¹	
G7A U30C A64C	< 1e-05 s⁻¹	< 1e-05 s⁻¹	< 1e-05 s⁻¹	
A6C U49G G62A A64G	< 1e-05 s⁻¹	< 1e-05 s⁻¹	< 1e-05 s⁻¹	
C11G A36C G41C G60A	< 1e-05 s⁻¹	< 1e-05 s⁻¹	< 1e-05 s⁻¹	
G51U C61A C71A	< 1e-05 s⁻¹	< 1e-05 s⁻¹	< 1e-05 s⁻¹	
A12G A15U A53C C67A	< 1e-05 s⁻¹			
C50G U54A U65A	0.00014 ± 3.8e-05 s⁻¹		5.15e-05 ± 2e-05 s⁻¹	5.29e-05 ± 1.5e-05 s⁻¹
U47A C58A	2.53e-05 ± 1.2e-05 s⁻¹	7.69e-05 ± 1.4e-05 s⁻¹	0.00024 ± 2.9e-05 s⁻¹	
G9U C16U	< 1e-05 s⁻¹	< 1e-05 s⁻¹	< 1e-05 s⁻¹	< 1e-05 s⁻¹

From the supplement of paper PMC7125110
